This is an account of results in patent US20090304721A1, “TOXIN […] RECEPTOR ANTIBODIES” (priority 2005, published 2009).

One assay concerns PC3 tumor. Put plainly: In vivo efficacy, subcutaneous tumor xenograft. More on the design: species or system Athymic nu/nu mice. To be noted: intraperitoneal, every fourth day, 5 doses; tumor volume by caliper.
The subject of a further assay is MDA-MB231 tumor. Nature of the assay: In vivo efficacy, subcutaneous tumor xenograft. More on the design: species or system Athymic nu/nu mice. To be noted: intraperitoneal, every fourth day, 5 doses; tumor volume by caliper.
Another assay deals with PC3 cells. Nature of the assay: Fluorescent visualization of internalization of α-EphA2 antibodies. To be noted: 50 μg/ml Ab, 20 or 60 minutes at 37° C. The format is cell-based, human. The method, then:
FIG. 18. […] PC3 cells were labeled with either human α-EphA2 mAb (G5; panels A and B) or R347 isotype control (panel C). Cell surface attached antibodies were then allowed to internalize by incubating the cells under growth conditions for either zero (non-internalized: panels A and C) or […] (internalized: panel B). All cells were then fixed (4% formaldehyde), permeabilized (0.5% Triton X-100), and stained with AlexaFluor 488-Ab prior to addition of antifade mounting media and fluorescent microscopy examination.
(§1) Cells (PC3, HUVEC, or CT26) were grown for 24-48 hours at 37° C./5% CO2 at a concentration of 2.5-5.0×10^4 cells per 400 μl of appropriate growth media per chamber on Nunc's Tek II 8-chamber slides. […] Cells were then washed 2× with PBS and cell-surface-bound primary Abs were allowed to internalize by covering the cells with growth media and incubation at 37° C./5% CO2 for 0 minutes, 20 minutes (FIGS. 18A-C and 19), or 60 minutes (FIG. 17).
(§2) Subsequent to internalization, cells were fixed (4% paraformaldehyde), permeabilized (0.5% Triton X-100), and labeled with secondary AlexaFluor 488 goat-α-human IgG Ab (Biosource), with 2× cold PBS washing in between steps.
Finally, the cells were covered with […] Mounting Media with DAPI (Vector Labs) and a coverslip prior to examination and photography with fluorescent confocal microscope. […]

The next assay concerns HuVec cells. Described as above. The format is cell-based, human. The following applies: 50 μg/ml Ab, 20 minutes at 37° C. The protocol: as §1, §2
Finally, the cells were covered with […] Mounting Media with DAPI (Vector Labs) and a coverslip prior to examination and photography with fluorescent confocal microscope. Results of the antibody internalization experiments are shown in the fluorescent microscopy pictures of FIGS. 16, 17, 18A, 18B, 18C, and 19 herein. EphA2 was rapidly internalized in these cell lines upon binding the agonistic EphA2 antibodies.

For a further assay, the target named is T1, EphA2 (Homo sapiens, UniProt P29317).
T1 construct: endogenous in cells; host or cells: HUVEC (human)
T1 sequence (P29317 24-976): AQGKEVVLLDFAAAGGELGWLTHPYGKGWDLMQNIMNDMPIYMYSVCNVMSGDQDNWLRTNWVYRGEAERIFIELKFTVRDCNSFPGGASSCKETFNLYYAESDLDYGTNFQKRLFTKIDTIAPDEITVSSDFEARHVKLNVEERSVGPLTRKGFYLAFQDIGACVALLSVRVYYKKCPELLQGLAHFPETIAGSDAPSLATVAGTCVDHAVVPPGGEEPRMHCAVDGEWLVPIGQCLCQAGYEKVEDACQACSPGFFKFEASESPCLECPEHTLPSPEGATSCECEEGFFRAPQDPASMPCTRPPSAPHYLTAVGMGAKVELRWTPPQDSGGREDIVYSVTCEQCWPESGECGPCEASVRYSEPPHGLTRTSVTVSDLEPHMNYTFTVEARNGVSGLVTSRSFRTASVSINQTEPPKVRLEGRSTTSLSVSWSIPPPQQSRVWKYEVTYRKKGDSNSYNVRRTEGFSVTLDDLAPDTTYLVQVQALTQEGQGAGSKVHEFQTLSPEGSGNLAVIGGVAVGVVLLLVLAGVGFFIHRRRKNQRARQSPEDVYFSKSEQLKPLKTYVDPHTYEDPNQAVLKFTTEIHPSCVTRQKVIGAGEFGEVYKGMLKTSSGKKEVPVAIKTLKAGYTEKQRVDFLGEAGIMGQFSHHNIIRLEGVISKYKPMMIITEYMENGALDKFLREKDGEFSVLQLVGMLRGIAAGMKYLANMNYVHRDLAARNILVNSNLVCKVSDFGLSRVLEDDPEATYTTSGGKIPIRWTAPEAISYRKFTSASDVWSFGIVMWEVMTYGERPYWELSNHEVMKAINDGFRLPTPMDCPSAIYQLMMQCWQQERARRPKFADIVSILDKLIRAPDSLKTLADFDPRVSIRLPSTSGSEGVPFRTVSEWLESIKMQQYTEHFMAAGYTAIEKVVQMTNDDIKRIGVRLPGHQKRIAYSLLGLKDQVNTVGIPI
Put plainly: EphA2 receptor activation (phosphorylation, immunoprecipitation/Western). The format is cell-based. To be noted: HuVec cells. The protocol: Cells were grown overnight at 37° C./5% CO2 at a concentration of 0.5×10^6 cells per 3 ml of appropriate growth media per well in 6-well tissue culture plates. […] The cells were incubated for 15 minutes at 37° C./5% CO2 to activate EphA2 receptor. Subsequent to activation the cells were washed 1× with cold PBS and lysed on ice with 1% Triton X-100 lysis buffer containing Phosphatase Inhibitor Cocktails 1 and 2 (Sigma) and Complete Protease Inhibitor Cocktail Tablets (Roche), added as per manufacturer's recommendation. D7 α-EphA2 mAb and 50 μl of protein A sepharose beads pre-conjugated to rabbit anti-mouse IgG were mixed with lysate at 4° C. overnight to immunoprecipitate the proteins.
Protein lysates were resolved by 10% Bis-Tris NuPAGE Western gel and transferred electrophoretically to nitrocellulose membranes (Invitrogen) following manufacturer's protocol. […] See also Coffman et al., Cancer Res. 63: 7907-7912, 2003.

Method for MDA-MB231 tumor: (§3) Athymic nu/nu (Harlan, Somerville, N.J.) female mice 4-6 weeks of age were injected subcutaneously with 5×10^6 tumor cells. […] Each treatment group consisted of groups of mice ranging in number from 10-12.
(§4) Tumor volume measurements were taken with a caliper routinely (1-2 times/week) starting at the initiation of drug treatment.
Method for PC3 tumor: as §3, §4

B1: G5vcMMAF: anti-EphA2 antibody G5 conjugated to MMAF with the valine-citrulline (vc) linker (conjugate)
VH: QMQLVQSGPEVKKPGTSVKVSCKASGFTFTDYSMNWVRQARGQRLEWIGFIRNKANDYTTEYSASVKGRVTITRDMSTSTAYMELSSLRSEDTAVYYCARYPRYHAMDSWGQGTSVTVSS
VL: DIQMTQSPSSLSASVGDRVTITCRASQSISNNLHWYQQKPGKAPKLLIKYVFQSISGVPSRFSGSGSGTDFTFTISSLQPEDFATYYCQQSNSWPLTFGGGTKVEIKG
modifications: non-natural residues
notes: anti-EphA2 antibody G5 conjugated to MMAF with the valine-citrulline (vc) linker
For the molecule B1, the “PC3 tumor growth in vivo” value in the assay on PC3 tumor is on record as “specifically inhibited”. Moreover, in the assay with MDA-MB231 tumor, the “MDA-MB231 tumor growth in vivo” value is “specifically inhibited”.

B2: G5: humanized agonistic monoclonal antibody that binds EphA2; VH/VL SEQ ID NO. 103 and 104 (antibody, V domains shown)
VH: B1 VH
VL: B1 VL
modifications: Antibody variable region
In the case of B2, in the assay with PC3 cells, the internalization by immunofluorescence entry is given as “internalization”.

B3: 3F2vcMMAE: anti-EphA2 antibody 3F2 conjugated to MMAE with a vc linker (conjugate)
VH: EVQLVESGGGVVRPGGSLRLSCAASGFTVSDYSMNWVRQAPGKGLEWIGFIRNKANAYTTEYSASVKGRFTISRDDSKNTLYLQMNSLKTEDTAVYYCTTYPRYHAMDSWGQGTMVTVSS
VL: AIQLTQSPSSLSASVGDRVTITCRASQSISNNLHWYLQKPGQSPQLLIYYGFQSISGVPSRFSGSGSGTDFTLTISSLQPEDFATYYCQQANSWPLTFGGGTKLEIK
modifications: non-natural residues
notes: anti-EphA2 antibody 3F2 conjugated to MMAE with a vc linker
In the case of B3, the “PC3 tumor growth in vivo” value in the assay with PC3 tumor is given as “specifically inhibit”.

B4: 3F2: humanized agonistic monoclonal antibody that binds EphA2; VH/VL SEQ ID NO: 63 and 64 (antibody, V domains shown)
VH: B3 VH
VL: B3 VL
modifications: Antibody Variable Heavy chain; Antibody Variable region
B4: in the assay with HuVec cells, the internalization by immunofluorescence entry is “Internalization”. In the assay with EphA2, the EphA2 phosphorylation entry was “EphA2 phosphorylation”.
